From article PMC8115288 (2021)

B1: GST-CTD (C-terminal domain of HIV-1 integrase, aa 201-288) [HIV-1 (Hx3B)] / His6-SUMO-INI1_(183-304) [not stated] (parent complex)
chain 1: VDIIATDIQTKELQKQITKIQNFRVYYRDSRNPLWKGPAKLLWKGEGAVVIQDNSDIKVVPRRKAKIIRDYGKQMAGDDCVASRQDED
chain 2: PEVLVPIRLDMEIDGQKLRDAFTWNMNEKLMTPEMFSEILCDDLDLNPLTFVPAIASAIRQQIESYPTDSILEDQSDQRVIIKLNIHVGNISLVDQFEWDMSEKENSPEKFALKLCSELGLG

Variants of: B1
Assay: Alpha assay; low salt conditions; parent: 100; read off a plot

Row | Variant | percent of parent
1 | chain 1 K44A | ~15 % of WT
2 | chain 1 K64A, chain 1 K66A | ~2 % of WT
3 | chain 1 W35A | ~17 % of WT
4 | chain 1 W35E | ~2 % of WT
5 | chain 1 W35F | ~90 % of WT
6 | chain 1 W35K | ~4 % of WT
